Assay [1] has as its target T1, Fc-tagged extracellular domain (ECD) of the recombinant human EGFR (rhEGFR) (human, UniProt P00533 25-645).
T1 construct: extracellular domain; also called rhEGFR-ECD; rhEGFR-ECD-Fc; not shown: Fc tag of the bought protein (R&D 344-ER)
As to the kind of experiment: biolayer interferometry, Fab immobilized, rhEGFR in solution, 1:1 global fit. (In general: BLI is a label-free optical method that tracks binding on a fibre tip over time.)

For assay [2], the target named is T2, EGFR-D28 on HEK293F cells (UniProt P00533 25-1210).
T2 construct: whole, on cells; also called EGFR-28; not shown: C-terminal GFP of the parent EGFR-GFP construct
As to the kind of experiment: flow cytometry on HEK293F cells transiently expressing EGFR-D28. On the technique in general: In flow cytometry, cells or beads pass a laser one at a time.

In assay [3] the target is T3, EGFR-DM (Y251A/R285S) on HEK293F cells (UniProt P00533 25-1210).
T3 construct: whole, on cells; not shown: C-terminal GFP of the parent EGFR-GFP construct
As to the kind of experiment: flow cytometry on HEK293F cells transiently expressing EGFR-DM.

Assay [4] has as its target T4, cell-surface EGFR (endogenous on A431, MDA-MB-231 and other cancer cell lines); pBABE-EGFR transfected 293T … (UniProt P00533 25-1210, limits assumed).
T4 construct: whole, on cells; Untagged EGFR on cells; also called endogenous cell-surface EGFR; EGFR1
As to the kind of experiment: flow cytometry dose response on A431 cells, without EGF.

For assay [5], the target named is T1, Fc-tagged extracellular domain (ECD) of …. As to the kind of experiment: competitive phage ELISA with soluble rhEGFR as competitor, phage-displayed Fab. A general note: In an ELISA, binding on a coated surface is turned into a signal by an enzyme label.
Assay [6] addresses T3, EGFR-DM (Y251A/R285S) on HEK293F cells. As to the kind of experiment: flow cytometry dose response on transfected HEK293F cells.
Assay [7] addresses T2, EGFR-D28 on HEK293F cells. The assay is described as above.
The target of assay [8] is T5, EGFR-vIII on HEK293F cells (UniProt P00533 25-1210).
T5 construct: whole, on cells
As to the kind of experiment: flow cytometry, HEK293F cells transiently expressing EGFR-vIII against cells expressing GFP.

In assay [9] the target is T6, Fc-tagged ECD of ErbB4 (ErbB family member, R&D 1131-ER) (human, UniProt Q15303 26-651).
T6 construct: extracellular domain; not shown: Fc tag of the bought protein
T6 sequence (looked up): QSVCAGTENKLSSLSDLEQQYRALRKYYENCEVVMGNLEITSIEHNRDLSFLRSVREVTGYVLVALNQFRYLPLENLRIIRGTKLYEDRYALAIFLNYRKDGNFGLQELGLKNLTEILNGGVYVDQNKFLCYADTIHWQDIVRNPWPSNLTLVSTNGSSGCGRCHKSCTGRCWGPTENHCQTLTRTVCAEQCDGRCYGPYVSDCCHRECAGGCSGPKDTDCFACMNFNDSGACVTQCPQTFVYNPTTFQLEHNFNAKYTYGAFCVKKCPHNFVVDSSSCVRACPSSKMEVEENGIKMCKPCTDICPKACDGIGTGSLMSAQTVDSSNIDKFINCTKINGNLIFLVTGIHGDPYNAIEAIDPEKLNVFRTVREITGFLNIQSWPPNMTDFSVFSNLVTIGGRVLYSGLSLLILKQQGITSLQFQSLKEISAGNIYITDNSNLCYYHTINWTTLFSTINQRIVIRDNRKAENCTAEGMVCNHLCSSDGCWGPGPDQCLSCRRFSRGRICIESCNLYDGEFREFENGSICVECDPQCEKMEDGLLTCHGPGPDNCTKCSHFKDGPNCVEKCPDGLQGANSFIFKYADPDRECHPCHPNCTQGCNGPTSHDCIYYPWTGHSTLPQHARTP
As to the kind of experiment: ELISA on immobilized Fc-tagged ErbB ECDs.

Assay [10] has as its target T7, Fc-tagged ECD of ErbB2 (ErbB family member, R&D 1129-ER) (human, UniProt P04626 23-652).
T7 construct: extracellular domain; not shown: Fc tag of the bought protein
As to the kind of experiment: ELISA on immobilized Fc-tagged ErbB ECDs.

Assay [11] concerns the target T8, Fc-tagged ECD of ErbB3 (R&D 348-RB) (human, UniProt P21860 20-643).
T8 construct: extracellular domain; also called ErbB family member; not shown: Fc tag of the bought protein
As to the kind of experiment: ELISA on immobilized Fc-tagged ErbB ECDs.

In assay [12] the target is T9, full-length EGFR with a C-terminal GFP fusion (EGFR-GFP) on HEK293F cells (UniProt P00533 25-1210).
T9 construct: whole, on cells; also called EGFR (HEK293F transfected); not shown: C-terminal GFP fusion
As to the kind of experiment: flow cytometry dose response on EGFR-293F cells.

Assay [13] addresses T1, Fc-tagged extracellular domain (ECD) of …. As to the kind of experiment: competitive phage ELISA with soluble rhEGFR as competitor, phage-displayed Fab; affinity-matured clone Fab 8708.
The target of assay [14] is T10, EGFR fragment D3-D4 on HEK293F cells (UniProt P00533 334-645, limits assumed).
T10 construct: domain: D3-D4
As to the kind of experiment: flow cytometry heat map of relative binding, 293F cells expressing EGFR EC domains.

The target of assay [15] is T11, EGFR fragment D2-D3-D4 on HEK293F cells (UniProt P00533 190-645, limits assumed).
T11 construct: domain: D2-D3-D4
The assay is described as above.

Assay [16] concerns the target T9, full-length EGFR with a C-terminal GFP …. As to the kind of experiment: flow cytometry on HEK293F cells transiently expressing EGFR.
For assay [17], the target named is T1, Fc-tagged extracellular domain (ECD) of …. As to the kind of experiment: multi-point competitive ELISA: soluble EGFR competes with immobilized EGFR for Clone 23.
Assay [18] shares this target. As to the kind of experiment: multi-point competitive ELISA: soluble EGFR competes with immobilized EGFR for Clone 24.
The target is the same in assay [19]. As to the kind of experiment: ELISA: biotinylated EGF on immobilized EGFR, with or without pre-incubation with unlabeled EGF.
For assay [20] the target is unchanged. As to the kind of experiment: biolayer interferometry, Fab immobilized, rhEGFR-ECD-Fc in solution, 1:1 model.
Assay [21] addresses T4, cell-surface EGFR (endogenous on A431, …). As to the kind of experiment: flow cytometry dose response on A431 cells after incubation with 10 nM EGF.

B1: Fab 8708 (Fab DL06 AM SR02) (Fab)
heavy: EVQLVESGGGLVQPGGSLRLSCAASGFNISSSSIHWVRQAPGKGLEWVAYISSYYSSTYYADSVKGRFTISADTSKNTAYLQMNSLRAEDTAVYYCARTYCPPLMRYNPTTYQMDVNPEAQYSFGATCGWAMDYWGQGTLVTVSSASTKGPSVFPLAPSSKSTSGGTAALGCLVKDYFPEPVTVSWNSGALTSGVHTFPAVLQSSGLYSLSSVVTVPSSSLGTQTYICNVNHKPSNTKVDKKVEPKSCDKTHT
light: DIQMTQSPSSLSASVGDRVTITCRASQSVSSAVAWYQQKPGKAPKLLIYSASSLYSGVPSRFSGSRSGTDFTLTISSLQPEDFATYYCQQWSYYPITFGQGTKVEIKRTVAAPSVFIFPPSDSQLKSGTASVVCLLNNFYPREAKVQWKVDNALQSGNSQESVTEQDSKDSTYSLSSTLTLSKADYEKHKVYACEVTHQGLSSPVTKSFNRGECGGSDYKDDDDK
notes: Purified Fab in most assays; also called DL06 SR02; Fab DL06 SR02
With B1, the Kd in assay [1] came to 6.8 nM. Further, the koff in [1] came out at 5.6e-05 s⁻¹. Besides, the kon in assay [1] was 7000 M⁻¹ s⁻¹. Further, the 50% effective concentration (EC50) in assay [2] amounted to 21 nM; in [3] it was 23 nM; in [16], 8.2 nM. Besides, the “EC50 (read off the curve)” value in [4] and in [12] was ~6 nM in each case. Besides, in assay [5], the “fold enhancement in affinity against parent Fab DL06” value is 7 fold. In addition, the “fold change of EC50 against EGFR” value in [6] and in assay [7] was < 3 fold in each case. For the same molecule, the binding result in assay [8] is “no binding (tested: 200 nM)”; in assay [9] it was “no binding”; in [10], “no binding”; in assay [11], “no binding”; in assay [14], “no binding”; in assay [15] it was “no binding”. Besides, the IC50 in assay [13] is ~30 nM.

B2: Fab DL06 AM Clone 23 (Fab)
heavy: EVQLVESGGGLVQPGGSLRLSCAASGFNISSSSIHWVRQAPGKGLEWVAYISSYYSSTYYADSVKGRFTISADTSKNTAYLQMNSLRAEDTAVYYCARTFCPPIMLFNATSFELDIDAEAKFSFASTCGWAMDYWGQGTLVTVSSASTKGPSVFPLAPSSKSTSGGTAALGCLVKDYFPEPVTVSWNSGALTSGVHTFPAVLQSSGLYSLSSVVTVPSSSLGTQTYICNVNHKPSNTKVDKKVEPKSCDKTHT
light: DIQMTQSPSSLSASVGDRVTITCRASQSVSSAVAWYQQKPGKAPKLLIYSASSLYSGVPSRFSGSRSGTDFTLTISSLQPEDFATYYCQQWSYYPITFGQGTKVEIKRTVAAPSVFIFPPSDSQLKSGTASVVCLLNNFYPREAKVQWKVDNALQSGNSQESVTEQDSKDSTYSLSSTLTLSKADYEKHKVYACEVTHQGLSSPVTKSFNRGECGGSDYKDDDDK
notes: Purified Fab
B2: the binding result in assay [17] is “binds”.

B3: Fab DL06 AM Clone 24 (Fab)
heavy: EVQLVESGGGLVQPGGSLRLSCAASGFNISSSSIHWVRQAPGKGLEWVAYISSYYSSTYYADSVKGRFTISADTSKNTAYLQMNSLRAEDTAVYYCARTFCPPLMLFNPTTFQLEINAEAKYSFASTCGWAMDYWGQGTLVTVSSASTKGPSVFPLAPSSKSTSGGTAALGCLVKDYFPEPVTVSWNSGALTSGVHTFPAVLQSSGLYSLSSVVTVPSSSLGTQTYICNVNHKPSNTKVDKKVEPKSCDKTHT
light: DIQMTQSPSSLSASVGDRVTITCRASQSVSSAVAWYQQKPGKAPKLLIYSASSLYSGVPSRFSGSRSGTDFTLTISSLQPEDFATYYCQQWSYYPITFGQGTKVEIKRTVAAPSVFIFPPSDSQLKSGTASVVCLLNNFYPREAKVQWKVDNALQSGNSQESVTEQDSKDSTYSLSSTLTLSKADYEKHKVYACEVTHQGLSSPVTKSFNRGECGGSDYKDDDDK
notes: Purified Fab
Turning to B3, the binding result in assay [18] is recorded as “binds”.

B4: Recombinant EGF ligand (ligand, UniProt P01133 971-1023, looked up)
chain: NSDSECPLSHDGYCLHDGVCMYIEALDKYACNCVVGYIGERCQYRDLKWWELR
modifications: biotinylated with the N-hydroxysuccinimide ester of biotin in the ligand binding ELISA
notes: also called biotinylated EGF
B4: the binding result in assay [19] is reported as “binds”.

B5: Fab 8709 (Fab H) (Fab)
heavy: EVQLVESGGGLVQPGGSLRLSCAASGFNLYSSSMHWVRQAPGKGLEWVASIYPYSGYTYYADSVKGRFTISADTSKNTAYLQMNSLRAEDTAVYYCARYPFGVSAYYAMDYWGQGTLVTVSSASTKGPSVFPLAPSSKSTSGGTAALGCLVKDYFPEPVTVSWNSGALTSGVHTFPAVLQSSGLYSLSSVVTVPSSSLGTQTYICNVNHKPSNTKVDKKVEPKSCDKTHT
light: DIQMTQSPSSLSASVGDRVTITCRASQSVSSAVAWYQQKPGKAPKLLIYSASSLYSGVPSRFSGSRSGTDFTLTISSLQPEDFATYYCQQSYWLITFGQGTKVEIKRTVAAPSVFIFPPSDSQLKSGTASVVCLLNNFYPREAKVQWKVDNALQSGNSQESVTEQDSKDSTYSLSSTLTLSKADYEKHKVYACEVTHQGLSSPVTKSFNRGECGGSDYKDDDDK
notes: From library F. Purified Fab in most assays
Take B5: the dissociation constant (Kd) in assay [1] came out at 1.4 nM. Moreover, the koff in [1] is 0.00017 s⁻¹. Also, the kon in [1] worked out at 130000 M⁻¹ s⁻¹. In addition, the EC50 in [2] came out at 1.4 nM; in assay [3], 1.4 nM; in [16], 0.6 nM. Also, the “fold faster off-rate than Fab 8708” value in assay [20] is 3 fold. Further, in assay [20], the “fold faster on-rate than Fab 8708” value was 18 fold. For the same molecule, the half-maximal effective concentration (EC50 (read off the curve)) in assay [4] was ~0.6 nM; in [21] it was ~3 nM; in assay [12], ~0.6 nM. Besides, the “fold change of EC50 against EGFR” value in assay [6] and in assay [7] was < 3 fold each time. The binding result in assay [8] was “no binding (tested: 200 nM)”; in assay [9], “no binding”; in assay [10], “no binding”; in assay [11], “no binding”; in [14], “no binding”; in [15], “no binding”.

The term Kd denotes a measure of binding affinity in units of concentration. As a reminder, the koff is the first-order rate constant of dissociation. As usually defined, the kon is a measure of how fast the partners come together. What is called EC50 is the concentration giving half of the maximal effect. High values mean a need for much substance, low ones an effect from little substance. Usually EC50 (read off the curve) stands for the concentration that produces a half-maximal response. What is called IC50 is the concentration that inhibits the measured activity by half.

The values are drawn from patent publication US20200087405A1 (UNIVERSITY OF SASKATCHEWAN, published 2020).
